Measured values as given in the RNAGym collection of RNA variant scans (doi:10.1093/nar/gkz1192).

B1: CPEB3 Ribozyme (parent)
chain: UAACAGGGGGCCACAGCAGAAGCGUUCACGUCGCAGCCCCUGUCAGAUUCUGGUGAAUCUGCGAAUUCUGCUGUAUAUCUC

Variants of: B1
Experiment: self-cleavage, relative activity (ratio to wild type); higher = more cleavage; in vitro, sequencing
Outline: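 Libraries of CPEB3 self-cleaving ribozyme mutants came from rounds of error-prone PCR and carried barcodes, which DNA sequencing matched to variants. In vitro transcription used T7 RNA polymerase at 37°C for 5 hours, with a further 15 min in DNase I before EDTA stopped the reaction; the ribozymes cleaved during both steps. The RNA was reverse transcribed with template switching and sequenced on Illumina. Relative activity is the cleaved/total read fraction of a variant divided by that of the unmutated ribozyme, averaged over three batches with at least 5 reads.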

Row | Variant | self-cleavage
1 | G30C U72A | 0.13
2 | G30C G73A | 0.11
3 | G30U U51C | 0.16
4 | G30U U51A | 0.11
5 | U31C C38G | 0.16
6 | U31C C38U | 0.98
7 | U31C C38A | 0.33
8 | U31A U51C | 0.46
9 | U31A U51A | 0.59
10 | U31A U51G | 0.33
11 | U31C C81U | 1.14
12 | U31C C81G | 0.55
13 | G30U A45G | 0.28
14 | C32A A35G | 0.87
15 | U31C U74C | 1.18
16 | U31C U74A | 1.18
17 | U31C U74G | 1.23
18 | U31A A75U | 0.61
19 | U31A A75G | 0.47
20 | U31C G46U | 0.23
21 | U31C G46A | 0.15
22 | G30C U76A | 0.17
23 | G30U U72G | 0.15
24 | G30U U72A | 0.22

Row | Variant | self-cleavage
25 | G30U U72C | 0.08
26 | U31G U69C | 0.18
27 | U31G U69A | 0.22
28 | U31A U67A | 0.34
29 | U31A U67C | 0.2
30 | U31A U74C | 0.77
31 | U31A U74A | 0.74
32 | U31A U74G | 0.84
33 | U31G G33A | 0.57
34 | U31C U54A | 0.92
35 | U31C U54C | 0.8
36 | U31C U54G | 0.68
37 | U31C U43G | 0.36
38 | U31C U43A | 1.03
39 | U31C U43C | 0.49
40 | G30U G33A | 0.24
41 | U31G U60A | 0.32
42 | U31G U60C | 0.31
43 | U31A G53C | 0.51
44 | U31A G53A | 0.53
45 | U31C U67C | 0.26
46 | U31C U67A | 0.34
47 | C32A A64G | 0.1
48 | G30U A47G | 0.22

Row | Variant | self-cleavage
49 | U31A A65G | 0.36
50 | U31A A65U | 0.37
51 | U31A G61C | 0.24
52 | U31A G61A | 0.37
53 | U31C U41A | 0.29
54 | U31C U41C | 0.82
55 | U31C U41G | 0.34
56 | C32A A57U | 0.2
57 | C32A A57G | 0.24
58 | U31A U69G | 0.27
59 | U31A U69A | 0.29
60 | U31A U69C | 0.3
61 | U31G U72A | 0.5
62 | U31G U72C | 0.82
63 | U31G U72G | 0.92
64 | G30C U43C | 0.25
65 | G30C U49C | 0.08
66 | U31A G42A | 0.18
67 | U31A G42C | 0.53
68 | U31G U66C | 0.37
69 | G30U G52A | 0.17
70 | U31C A35U | 0.32
71 | U31C A35G | 1.21
72 | U31C A35C | 0.46

Row | Variant | self-cleavage
73 | U31G C32A | 0.28
74 | U31G C32U | 0.22
75 | G30C U78C | 0.38
76 | G30C U78G | 0.2
77 | G30C U41C | 0.28
78 | G30C U31C | 0.26
79 | U31G | 0.5
80 | U31A | 0.56
81 | U31C | 0.87
82 | U31G U80A | 0.59
83 | U31G U80C | 0.72
84 | G30U A64G | 0.23
85 | U31A U48C | 0.29
86 | U31A U48A | 0.13
87 | U31A U48G | 0.16
88 | U31G A77G | 0.59
89 | U31A U78A | 0.41
90 | U31A U78C | 0.46
91 | U31A U78G | 0.46
92 | U31G U74A | 1.02
93 | U31G U74G | 0.99
94 | U31G U74C | 0.96
95 | G30U U69A | 0.1
96 | U31C C40U | 0.49

Row | Variant | self-cleavage
97 | U31C C40A | 0.2
98 | U31A C37U | 0.16
99 | U31G C68A | 0.31
100 | U31G C62G | 0.15
101 | U31G C79A | 0.56
102 | U31A G73A | 1.04
103 | U31A G73C | 1.08
104 | U31A G55A | 0.41
105 | U31A U49A | 0.41
106 | U31A U49C | 0.22
107 | G30U | 0.25
108 | U31G U51C | 0.52
109 | C32A A75C | 0.56
110 | U31C G70C | 0.18
111 | U31C G70A | 0.25
112 | U31G C39U | 0.34
113 | U31C G61C | 0.14
114 | G30U A65G | 0.25
115 | C32A A47G | 0.14
116 | U31A A57G | 0.53
117 | U31A A77U | 0.51
118 | U31A A77G | 0.32
119 | U31C U78C | 0.87
120 | U31C U78A | 0.86

Row | Variant | self-cleavage
121 | U31C U78G | 0.84
122 | U31A C32G | 0.12
123 | U31A C32U | 0.13
124 | U31G U49A | 0.34
125 | U31G U49C | 0.26
126 | U31A C79U | 0.48
127 | U31C A75C | 1.1
128 | U31C A75U | 0.87
129 | U31C A75G | 0.77
130 | U31A U41C | 0.51
131 | U31A U41A | 0.33
132 | U31A U41G | 0.29
133 | G30U A35G | 0.05
134 | U31G U41A | 0.29
135 | U31G U41C | 0.33
136 | U31C U80G | 1.13
137 | U31C U80A | 1.01
138 | U31C U80C | 0.96
139 | U31C C59A | 0.29
140 | U31C C59U | 0.54
141 | U31C G36A | 0.13
142 | U31C G36U | 0.14
143 | U31C C34A | 0.15
144 | U31C C34U | 0.24

Row | Variant | self-cleavage
145 | U31A U60A | 0.32
146 | U31A U60C | 0.25
147 | U31A U60G | 0.2
148 | G30C U48C | 0.16
149 | G30U U76C | 0.39
150 | G30U U76A | 0.5
151 | U31A A64C | 0.14
152 | U31A A64U | 0.29
153 | U31A A64G | 0.39
154 | G30U U54C | 0.14
155 | U31A U54C | 0.5
156 | U31A U54G | 0.55
157 | U31A U54A | 0.55
158 | U31A G52A | 0.69
159 | U31A G52C | 0.5
160 | U31C G52C | 1.14
161 | U31C G52A | 1.06
162 | G30U U49A | 0.35
163 | G30U U49C | 0.42
164 | G30U U80C | 0.17
165 | U31C A64G | 0.64
166 | U31C A64U | 0.31
167 | U31C A64C | 0.14
